Measured values: article PMC12062102, “Dual Targeting of Neuropilin-1 and Glucose Transporter for Efficient Fluorescence Imaging of Cancer” (Molecular Imaging and Biology, 2025)

How the values were obtained:
[1] = Photophysical properties (absorption, emission, ε, ΦF); assay type: physicochemical
Description: To investigate the spectral characteristics of probe, NGF (25 μM) was prepared using methanol, and the NGF stock solution was diluted to various concentrations (0.5, 1, 2, 3, and 4 μM) with both methanol or water as solvents. The absorption spectra at various concentrations were recorded using a UV–vis absorption spectrometer. To better understand how the solvent affects the fluorescence properties of NGF, the fluorescence emission spectra of 4 μM NGF were analyzed in both methanol and water. The molar absorption coefficient (ε), fluorescence quantum yield (ΦF), as well as the stability of NGF were investigated, and the details were provided in the Supporting Information.
where, Ix is the measured integrated emission intensity; η is the refractive index of the solvent; A is the absorbance of the solution; the subscript x denotes the probe; st denotes the reference compound.

[2] = In vivo IVIS fluorescence imaging, signal clearance and persistence in tumor-bearing mice; set-up: species or system Balb/c nude mice; details: 25 μM NGF, 200 μL i.v.
Description: (§1) The SPF female Balb/c nude mice (4–5 weeks old) were obtained from Changzhou Cavens Laboratory Animal Co., LTD (Changzhou, China). Tumor models were created by subcutaneously injecting 0.5 ~ 1 × 10^7 MDA-MB-231, HCT116 or NCI-H1299 cells in 100 μL PBS into the right forelimb of the nude mice. Imaging studies were conducted once the tumor volume reached approximately 100 mm^3. All animal experiments requiring the use of mice were approved by the animal care committee of Shanghai University (ECSHU 2024–004).
(§2) Animal fluorescence imaging was conducted using an IVIS Imaging spectroscopy system (PerkinElmer Inc., USA). MDA-MB-231, HCT116, and NCI-H1299 tumor-bearing mice (n = 3–5) were intravenously injected with 25 μM NGF (200 μL) via the tail vein. Following injection, mice were anesthetized with a 2% v/v isoflurane/oxygen mixture at a flow rate of […] to maintain stable physiological conditions during imaging. Subsequently, long-term optical imaging observations of tumor-bearing mice were performed using the IVIS Spectrum imaging system (PerkinElmer, USA). Imaging scans were conducted at various time points (1, 2, 4, 6, 8, 12, 24, 36, 48, 60, and 72 h) after NGF administration. The excitation wavelength (λex) was set to 745 nm and the emission wavelength (λem) was set to 840 nm for optimal fluorescence signal acquisition.

[3] = Description: Probe NGF (10 μM) was added to a mixture of H2O (0.5 mL) and n-octanol (0.5 mL), shaken thoroughly, and centrifuged for 3 min. The absorbance (A) of NGF in both H2O and n-octanol was measured using a UV-vis absorption spectrometer.
[4] = system: MDA-MB-231 cells; assay: Flow cytometry / confocal imaging and blocking study in MDA-MB-231 cells; assay type: cell-based, human
Description: (§3) MDA-MB-231, HCT116, and NCI-H1299 cells in logarithmic growth phase were seeded in 6-well plate and incubated at 37 ℃ in a 5% CO2 humidified incubator for 12 h, then the cells were fixed with 4% paraformaldehyde containing 1% TritonX-100 overnight at 4 ℃. Next, cells were treated with NGF (2 μM) for 1 h, stained with DAPI for 5 min, and finally the fluorescent images were captured using laser scanning fluorescence confocal microscopy (Olympus IX51). Images were captured using a U-LH100 HG mercury lamp with a WIY (Cy5 channel) filter and a 200 ms exposure time. A 10 × eyepiece and a 20 × objective were used for a total magnification of 200 × . A scale bar of 50 μm was included for reference.
(§4) Cancer cells MDA-MB-231, NCI-H1299 and HCT116 in logarithmic growth phase were harvested and transferred to sterile tubes with DMEM medium at a density of 2 × 10^5 cells per tube. […] Subsequently, the cells were resuspended in 0.5 mL of PBS buffer, and about 2 × 10^4 target cells were extracted for flow cytometry analysis (FACS Verse, BD) with FL4 channel, and the mean fluorescence intensity was quantified using FlowJo software.
(§5) For the blocking study, the cells of HCT116, NCI-H1299, and MDA-MB-231 were pretreated with the D-glucose (50 μM), NRP1 peptide (50 μM), and D-glucose + NRP1 peptide (50 μM) for 30 min. […] Then the fluorescence signals were detected by flow cytometry and microscopy imaging.

[5] = Aqueous stability of NGF in PBS; assay type: physicochemical; details: 3 μM in PBS, 37°C, 48 h incubation, UV-vis absorbance A/A0
[6] = 3 μM in 10% (v/v) mouse serum, 37°C, 48 h incubation, UV-vis absorbance A/A0
Description: NGF solution (3 μM) was prepared in PBS and 10% (v/v) mouse serum, and the initial absorbance (A0) was measured. Then NGF was incubated with PBS and mouse serum at 37°C, and the absorbance (A) was recorded at 4, 8, 12, 24, and 48 h, respectively. The stability of the probe was evaluated based on the ratio of A/A0. For the photostability, NGF solution (3 μM) was prepared in methanol, and the initial absorbance (A0) was measured. Then NGF was then subjected to laser irradiation, and the absorbance measurements (A) were recorded at 5, 10, 15, 20, and 30 min, respectively. The stability of the probe was evaluated based on the ratio of A/A0.

[7] = system: NCI-H1299 tumor; assay: In vivo IVIS fluorescence imaging, NCI-H1299 tumor-bearing mice; set-up: species or system Balb/c nude mice; details: 25 μM NGF, 200 μL i.v., n = 3–5
Description: as §1, §2

[8] = system: HCT116 tumor; assay: In vivo IVIS fluorescence imaging, HCT116 tumor-bearing mice; set-up: species or system Balb/c nude mice; details: 25 μM NGF
Description: as §1, §2

[9] = Photostability of NGF under laser irradiation; assay type: physicochemical; details: 3 μM in methanol, laser irradiation 30 min, UV-vis absorbance A/A0
[10] = system: HCT116 cells; assay: Flow cytometry / confocal imaging and blocking study in HCT116 cells; assay type: cell-based, human
Description: as §3, §4, §5

[11] = system: NCI-H1299 cells; assay: Confocal fluorescence imaging in NCI-H1299 cells; assay type: cell-based, human; details: NCI-H1299 (NRP1- and GLUT1-negative), NGF 2 μM, 1 h
Description: as §3
Cancer cells MDA-MB-231, NCI-H1299 and HCT116 in logarithmic growth phase were harvested and transferred to sterile tubes with DMEM medium at a density of 2 × 10^5 cells per tube. Various concentrations of NGF (0.125, 0.25, 0.5, 1, and 2 μM) were added, and the cells were incubated in a humidified incubator with 5% CO2 at 37 ℃ for 1 h. Subsequently, the cells were resuspended in 0.5 mL of PBS buffer, and about 2 × 10^4 target cells were extracted for flow cytometry analysis (FACS Verse, BD) with FL4 channel, and the mean fluorescence intensity was quantified using FlowJo software.

[12] = system: MDA-MB-231 tumor; assay: In vivo IVIS fluorescence imaging, MDA-MB-231 tumor-bearing mice; set-up: species or system Balb/c nude mice; details: 25 μM NGF, 200 μL i.v., imaging up to 72 h
Description: as §1, §2

CC(C)C[C@H](NC(=O)[C@H](C)NC(=O)CCOCCOCCOCCOCCn1cc(CCC[N+]2=C(C=CC3=C(Cl)C(=CC=C4N(CCCc5cn([C@H]6C(O)O[C@H](CO)[C@@H](O)[C@@H]6O)nn5)c5ccccc5C4(C)C)CCC3)C(C)(C)c3ccccc32)nn1)C(=O)N[C@@H](CCCCN)C(=O)N[C@@H](C)C(=O)N[C@@H](CC(=O)O)C(=O)N[C@@H](CCCCN)C(=O)O (some centres unmarked) [NGF]
fluorescence intensity in methanol ([1]; 4 μM in methanol): 12365 a.u.
maximum absorbance ([1]; 4 μM in methanol): 1.06
absorption peak (λmax) in MeOH ([1]; MeOH): 783 nm
fluorescence emission peak (λem) in MeOH ([1]; MeOH, λex = 750 nm): 807 nm
aggregation in aqueous solution ([1]; inferred from lower absorbance and fluorescence in H2O than in MeOH): some degree of aggregation
extinction coefficient ε in n-octanol ([1]; n-octanol): 124367 M⁻¹ cm⁻¹
time for fluorescent signal to clear from non-target organs [2]: ≤ 12 h
logP [3]: -0.95 ± 0.07
uptake relative to mono-receptor block conditions ([4]; MDA-MB-231, NGF 2 μM 1 h, pre-treatment 30 min with D-glucose (50 μM) or NRP1 peptide (50 μM), flow cytometry mean fluorescence intensity): 1.7–2.5 times
cellular internalization (confocal fluorescence) ([4]; MDA-MB-231, NGF 2 μM, 1 h): significantly internalized
absorbance as % of initial absorbance (A0) in PBS [5]: 97.7%
absorbance as % of initial absorbance (A0) in 10% mouse serum [6]: 95.2%
tumor fluorescence intensity [7]: comparatively weak
time post-injection at which tumor could be clearly identified ([8]; 200 μL i.v. tail vein, n = 3–5, λex 745 nm / λem 840 nm): 1 h
retention in tumor post-injection ([8]; 200 μL i.v., imaging up to 72 h): at least 72 h
absorbance as % of A0 after laser irradiation [9]: 56.7%
uptake relative to mono-receptor block conditions ([10]; HCT116, NGF 2 μM 1 h, pre-treatment 30 min with D-glucose (50 μM) or NRP1 peptide (50 μM), flow cytometry mean fluorescence intensity): 1.4–1.5 times
cellular internalization (confocal fluorescence) ([10]; HCT116, NGF 2 μM, 1 h): substantial internalization
cellular fluorescence (confocal) [11]: minimal fluorescence
retention in tumor post-injection [12]: at least 72 h
